Results published in the Human Domainome abundance scans (Beltran et al. 2025).
± gives the uncertainty stated by the source.

B1: Tumor protein p73, residues 487 to 549; numbered along this chain, O15350 (parent)
chain: YHADPSLVSFLTGLGCPNCIEYFTSQGLQSIYHLQNLTIEDLGALKIPEQYRMTIWRGLQDLK

Variants of: B1
Test: abundance fitness (aPCA) (normalised: wild type 0, dead -1); higher = more abundant; growth selection in yeast, the domain comes from the species named
Settings: Homo sapiens

| Variant | abundance fitness |
| --- | --- |
| G27L | -1.02 ± 0.1 |
| G27P | -0.367 ± 0.065 |
| G27Q | -0.05 ± 0.051 |
| L45Q | -0.518 ± 0.083 |
| F23R | -1.14 ± 0.15 |
| F23K | -0.975 ± 0.15 |
| F23H | -0.81 ± 0.27 |
| S9V | -0.373 ± 0.039 |
| S9M | -0.207 ± 0.054 |
| S9H | -0.345 ± 0.16 |
| S9T | -0.052 ± 0.049 |
| L59F | -0.065 ± 0.053 |
| I20T | -0.003 ± 0.036 |
| I20E | -0.057 ± 0.047 |
| I31C | -0.011 ± 0.087 |
| I31Y | -0.133 ± 0.064 |
| I31G | -0.199 ± 0.038 |
| V8Y | -0.016 ± 0.086 |
| V8R | 0.132 ± 0.033 |
| V8F | -0.045 ± 0.079 |
| V8N | -0.052 ± 0.056 |
| V8W | 0.083 ± 0.036 |
| V8G | 0.228 ± 0.032 |
| C19K | -0.726 ± 0.088 |

| Variant | abundance fitness |
| --- | --- |
| C19F | 0.031 ± 0.13 |
| T12W | -0.216 ± 0.035 |
| T12C | -0.386 ± 0.065 |
| A3K | 0.358 ± 0.042 |
| A3W | 0.209 ± 0.037 |
| A3E | 0.197 ± 0.063 |
| A3S | 0.268 ± 0.054 |
| A3C | 0.426 ± 0.062 |
| A3G | 0.141 ± 0.038 |
| G43Q | 0.061 ± 0.046 |
| G43A | -0.102 ± 0.053 |
| G43M | 0.028 ± 0.066 |
| G43L | 0.033 ± 0.046 |
| P48I | -0.144 ± 0.18 |
| P48Q | -0.208 ± 0.044 |
| P48R | -0.42 ± 0.038 |
| P48E | -0.067 ± 0.042 |
| S25E | 0.129 ± 0.046 |
| S25C | 0.012 ± 0.059 |
| I55M | -0.241 ± 0.057 |
| I55L | -0.091 ± 0.039 |
| I55Q | -0.5 ± 0.098 |
| I55K | -1.01 ± 0.14 |
| I55P | -1.08 ± 0.16 |

| Variant | abundance fitness |
| --- | --- |
| P5H | 0.003 ± 0.064 |
| P5T | 0.211 ± 0.04 |
| P5V | 0.159 ± 0.037 |
| Y32A | 0.012 ± 0.053 |
| Y32S | 0.113 ± 0.032 |
| S6D | 0.017 ± 0.14 |
| S6G | 0.136 ± 0.027 |
| G58T | -0.358 ± 0.052 |
| G58Q | -0.117 ± 0.049 |
| G58I | -0.68 ± 0.38 |
| E21P | -0.053 ± 0.049 |
| Q29A | -0.047 ± 0.037 |
| Q29L | 0.044 ± 0.028 |
| Q29D | 0.089 ± 0.089 |
| Q29S | 0.053 ± 0.033 |
| Q29M | 0.03 ± 0.04 |
| Q29P | 0.006 ± 0.037 |
| Q29F | -0.005 ± 0.056 |
| T38S | 0.018 ± 0.035 |
| T38F | -0.517 ± 0.13 |
| T38L | -0.158 ± 0.037 |
| T38V | -0.106 ± 0.033 |
| T38D | -0.215 ± 0.16 |
| T38Q | -0.018 ± 0.027 |

| Variant | abundance fitness |
| --- | --- |
| T54Y | -0.189 ± 0.069 |
| T54Q | 0.028 ± 0.068 |
| T54F | -0.362 ± 0.14 |
| T54S | -0.042 ± 0.075 |
| T54G | -0.074 ± 0.038 |
| T54M | -0.116 ± 0.058 |
| I47D | -0.477 ± 0.13 |
| E49D | 0.105 ± 0.063 |
| E49Y | -0.181 ± 0.38 |
| E49L | -0.042 ± 0.036 |
| L37H | -0.063 ± 0.12 |
| L37Y | 0.071 ± 0.11 |
| L11S | -1 ± 0.1 |
| L11H | -0.806 ± 0.34 |
| L11F | -0.031 ± 0.14 |
| Q35W | -0.245 ± 0.041 |
| L14M | -0.136 ± 0.057 |
| L14G | -0.989 ± 0.079 |
| A44I | -0.218 ± 0.2 |
| A44G | 0.072 ± 0.031 |
| Q50L | -0.036 ± 0.037 |
| Q50E | 0.047 ± 0.035 |
| Q50F | -0.23 ± 0.087 |
| Y1D | 0.23 ± 0.23 |

| Variant | abundance fitness |
| --- | --- |
| K46C | -0.08 ± 0.055 |
| K46P | 0.01 ± 0.059 |
| K46D | -0.138 ± 0.076 |
| K46L | -0.069 ± 0.032 |
| K46T | -0.102 ± 0.048 |
| M53W | -0.04 ± 0.042 |
| M53G | -0.025 ± 0.032 |
| M53K | -0.033 ± 0.078 |
| L34C | -0.049 ± 0.068 |
| L42K | -0.515 ± 0.079 |
| L42T | -0.45 ± 0.062 |
| L42I | -0.215 ± 0.13 |
| D61F | -0.572 ± 0.25 |
| D61G | 0.035 ± 0.047 |
| D61R | -0.066 ± 0.034 |
| D61V | -0.104 ± 0.045 |
| W56Y | 0.037 ± 0.066 |
| W56E | -0.047 ± 0.039 |
| W56S | 0.011 ± 0.042 |
| Q26F | -0.18 ± 0.077 |
| Q26P | -0.204 ± 0.052 |
| Q26H | 0.035 ± 0.085 |
| G15W | -0.854 ± 0.099 |
| G15M | -0.463 ± 0.059 |

| Variant | abundance fitness |
| --- | --- |
| R57S | -0.114 ± 0.043 |
| R57I | -0.24 ± 0.2 |
| R57W | -0.114 ± 0.039 |
| H2I | 0.515 ± 0.097 |
| H2M | 0.301 ± 0.1 |
| H2Y | -0.031 ± 0.11 |
| H2F | 0.145 ± 0.11 |
| H2D | -0.073 ± 0.095 |
| G13P | -0.183 ± 0.064 |
| G13I | -0.138 ± 0.071 |
| G13F | -0.172 ± 0.056 |
| G13E | 0.047 ± 0.052 |
| Y22R | -0.042 ± 0.029 |
| Y22M | -0.026 ± 0.055 |
| Y22W | -0.261 ± 0.041 |
| Y22P | -0.069 ± 0.074 |
| Y22T | -0.04 ± 0.041 |
| Y22D | -0.101 ± 0.063 |
| L62S | -0.083 ± 0.036 |
| L62W | 0.071 ± 0.039 |
| Q60P | -0.388 ± 0.05 |
| Q60H | -0.246 ± 0.083 |
| Q60I | 0.034 ± 0.066 |
| P17F | 0.036 ± 0.061 |

| Variant | abundance fitness |
| --- | --- |
| P17L | 0.023 ± 0.034 |
| P17A | -0.081 ± 0.043 |
| S30F | -0.423 ± 0.079 |
| S30C | -0.062 ± 0.04 |
| S30I | -1.01 ± 0.27 |
| F10K | -1.32 ± 0.31 |
| F10T | -0.823 ± 0.11 |
| F10Q | -0.865 ± 0.21 |
| R52W | -0.082 ± 0.048 |
| R52L | 0.004 ± 0.042 |
| C16M | 0.002 ± 0.065 |
| C16Y | -0.078 ± 0.069 |
| Y51H | -0.086 ± 0.097 |
| H33Y | -0.112 ± 0.058 |
| N18Q | -0.03 ± 0.037 |
| N18T | -0.084 ± 0.042 |
| L28K | 0.005 ± 0.043 |
| L28I | -0.041 ± 0.065 |
| L28Q | -0.038 ± 0.042 |
| E40M | -0.127 ± 0.054 |
| E40Q | -0.124 ± 0.085 |
| E40R | -0.059 ± 0.035 |
| E40H | -0.005 ± 0.11 |
